Test results reported in patent US20230295345A1 (published 2023).

T1: TMPRSS6 expressed in transfected HepG2 cells (HAMP-luciferase reporter assay) (UniProt Q8IU80 1-811, limits assumed)
T1 sequence (looked up): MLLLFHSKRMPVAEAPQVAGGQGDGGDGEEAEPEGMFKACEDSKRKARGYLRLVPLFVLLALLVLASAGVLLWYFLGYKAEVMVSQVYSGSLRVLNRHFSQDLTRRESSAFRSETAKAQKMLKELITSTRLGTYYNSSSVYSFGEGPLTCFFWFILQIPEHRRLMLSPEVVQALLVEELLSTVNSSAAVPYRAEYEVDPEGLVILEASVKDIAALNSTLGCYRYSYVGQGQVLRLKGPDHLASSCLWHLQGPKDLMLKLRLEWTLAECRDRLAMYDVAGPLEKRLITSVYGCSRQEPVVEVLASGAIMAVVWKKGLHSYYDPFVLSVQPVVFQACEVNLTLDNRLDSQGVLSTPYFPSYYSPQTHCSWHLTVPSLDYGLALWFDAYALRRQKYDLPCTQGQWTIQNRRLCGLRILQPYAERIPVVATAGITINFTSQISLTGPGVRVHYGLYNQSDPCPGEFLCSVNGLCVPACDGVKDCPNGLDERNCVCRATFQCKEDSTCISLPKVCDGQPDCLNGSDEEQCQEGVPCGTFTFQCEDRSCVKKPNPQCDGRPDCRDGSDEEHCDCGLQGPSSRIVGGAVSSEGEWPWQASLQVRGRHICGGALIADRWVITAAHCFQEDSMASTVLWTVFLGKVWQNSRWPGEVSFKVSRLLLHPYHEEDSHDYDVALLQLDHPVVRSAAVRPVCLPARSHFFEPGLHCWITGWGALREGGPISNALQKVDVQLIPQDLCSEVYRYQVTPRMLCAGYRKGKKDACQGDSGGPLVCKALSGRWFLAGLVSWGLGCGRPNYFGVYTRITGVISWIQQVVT

T2: mouse TMPRSS6 expressed on HEK293T cells (MoTMPRSS6-(His)6) (mouse, UniProt Q9DBI0 1-811)
T2 construct: stably expressed in HEK293T cells; also called murine TMPRSS6
T2 sequence: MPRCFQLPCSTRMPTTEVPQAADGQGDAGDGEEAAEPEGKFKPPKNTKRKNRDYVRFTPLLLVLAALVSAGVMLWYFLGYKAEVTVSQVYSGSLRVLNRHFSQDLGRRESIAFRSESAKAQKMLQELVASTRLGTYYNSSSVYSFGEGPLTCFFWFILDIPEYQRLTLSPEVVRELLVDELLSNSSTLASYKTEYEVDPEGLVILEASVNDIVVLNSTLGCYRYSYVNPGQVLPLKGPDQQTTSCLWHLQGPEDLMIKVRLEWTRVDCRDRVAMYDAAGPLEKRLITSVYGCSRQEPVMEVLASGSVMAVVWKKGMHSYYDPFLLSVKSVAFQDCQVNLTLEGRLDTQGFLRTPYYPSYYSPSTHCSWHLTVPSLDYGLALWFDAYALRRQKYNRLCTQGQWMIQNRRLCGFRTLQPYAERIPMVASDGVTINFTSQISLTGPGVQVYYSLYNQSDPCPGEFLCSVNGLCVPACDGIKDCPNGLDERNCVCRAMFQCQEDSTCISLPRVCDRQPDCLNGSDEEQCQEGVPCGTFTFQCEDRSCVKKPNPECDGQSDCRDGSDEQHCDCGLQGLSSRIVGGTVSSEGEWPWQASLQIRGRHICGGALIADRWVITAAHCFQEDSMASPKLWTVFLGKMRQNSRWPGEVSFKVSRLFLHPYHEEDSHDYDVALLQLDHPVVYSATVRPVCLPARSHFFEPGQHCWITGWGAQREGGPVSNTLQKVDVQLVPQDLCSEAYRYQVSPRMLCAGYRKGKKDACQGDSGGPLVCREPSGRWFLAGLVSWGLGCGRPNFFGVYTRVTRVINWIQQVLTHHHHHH

B1: hzMWTx-002Var anti-TMPRSS6 antibody (antibody, human IgG1, kappa, N297A, V domains shown)
VH: EVQLVQSGAEVKKPGASVKVSCKASGFNIKDYYIHWVRQATGQGLEWMGRIDPEDAESEYAPKFQGRVTITADTSTDTAYMELSSLRSEDTAVYYCTRGDSMMVTYFDYWGQGTLVTVSS
VL: DIQMTQSPSSLSASVGDRVTITCKASQDVSTAVAWYQQKPGKAPKLLIYWAFTRHTGVPSRFSGSGSGTDYALTISSLQPEDFATYYCQQHYRSPWTFGGGTKVEIKR
notes: Humanized variant of MWTx-002, human IgG1/kappa
B2: hzMWTx-001Var anti-TMPRSS6 antibody (antibody, human IgG1, kappa, N297A, V domains shown)
VH: EVQLVQSGAEVKKPGASVKVSCKASGYTFTSYWITWVRQAPGQRLEWIGNIYPGSGSTYYNEKFKSKATITRDTSSRTAYMELSSLRSEDTAVYYCAPYDADYAMDYWGQGTLVTVSS
VL: DIQMTQSPSSLSASVGDRVTITCKASQDISNYLSWFQQKPGKAPKLLIYRANRLVEGVPSRFSGSGSGTDFTLTISSLQPEDFATYFCLQYDEFPLTFGGGTKVEIKR
notes: Humanized variant of MWTx-001, human IgG1/kappa
B3: hzMWTx-003Var anti-TMPRSS6 antibody (antibody, human IgG1, kappa, L234A L235A, V domains shown)
VH: QVQLVQSGAEVKKPGASVKVSCKASGFNIEDYYMHWVRQAPGQRLEWMGRIDPEDAETTYSPKFQGRVTIIPDTSANTAYMELSSLRSEDTAVYYCARSIYLDPMDYWGQGTLVTVSS
VL: DIQMTQSPKSLSASVGDRVTITCRASQDVTTALAWYQQKPGQSPKLLIYWATTRHSGVPSRFSGSGSGTDFTLTISSLQPEDFATYYCQQHYSTPYTFGQGTKLEIKR
notes: Humanized variant of MWTx-003, human IgG1/kappa
B4: MWTx-002 anti-TMPRSS6 antibody (antibody, mouse IgG2b, kappa, V domains shown)
VH: EVQLQQSGAELVKPGASVKLSCTASGFNIKDYYIHWVKERTEQGLEWFGRIDPEDGESEYAPKFQGKATLTADTSSNTAYLQLSSLTSEDTAVYYCTRGDSMMVTYFDYWGQGTTLTVSS
VL: DIVMTQSHKFMSTSVGDRVSITCKASQDVSTAVAWYQQKPGQSPKLLIYWAFTRHTGVPDRFTSTGSGTDYALTISSVQAEDLALYYCQQHYRSPWTFGGGTKLEIKR
notes: Mouse monoclonal antibody from a hybridoma (ATCC PTA-126760)
B5: MWTx-001 anti-TMPRSS6 antibody (antibody, mouse IgG2a, kappa, V domains shown)
VH: QVQLQQPGAELAKPGASVKMSCKASGYTFTSYWITWVKQRPGQDLEWIGNIYPGSGSTYYNEKFKSKATLTVDTSSRTAYMQLSSLTSADSAVYYCAPYDSDYAMDYWGQGTSVTVSS
VL: DIKMTQSPSSMYASLGERVTITCKASQDINNYLSWFQQKPGKSPKTLIYRANRLVDGVPSRVSGSGSGQDYSLTISSLEYEDVGIYFCLQYDEFPLTFGAGTKLELKR
notes: Mouse monoclonal antibody from a hybridoma (ATCC PTA-126759)
B6: MWTx-003 anti-TMPRSS6 antibody (antibody, mouse IgG2b, kappa, V domains shown)
VH: EVQLQQSGAELVKPGASVKLSCTASGFNIEDYYIHWVKERTEQGLEWIGRIDPEDGETTYAPQFQGKATIIPDTSSNTAYMQLSSLTSEDAAVYYCARSIYLDPMDYWGQGTSVTVSS
VL: DIVMTQSHKFMSTSVGDRVSITCKASQDVTTAVAWYQQKPGQSPKILIYWATTRHTGVPDRFTGSISGTTYILTISSVQAEDLALYYCQQHYSTPYTFGGGTKLEIKR
notes: Mouse monoclonal antibody from a hybridoma (ATCC PTA-126761); also called r4K12B (recombinantly expressed version, same HC and LC)

molecular target: T1, TMPRSS6 expressed in transfected HepG2 …; assay: cell-based or functional assay

B1 was tested. Which “EC50, HAMP promoter activity (HAMP-luciferase reporter assay in HepG2 cells)” value (from here on “EC50, HAMP promoter activity”) did it give?
The value was 0.3 µg/mL.

How did the “EC50, HAMP promoter activity” value turn out when B2 was run?
The value was 0.8 µg/mL.

For B3, which “EC50, HAMP promoter activity” value is on record?
The value was 0.3 µg/mL.

With B4 as the binder, how does the “EC50, HAMP promoter activity” value read?
Its value is 1 µg/mL.

B5 was tested. Which “EC50, HAMP promoter activity” value did it give?
The value was 3 µg/mL.

Which “EC50, HAMP promoter activity” value does the source give for B6 here?
The value was 2 µg/mL.

molecular target: T2, mouse TMPRSS6 expressed on HEK293T …; assay: cell surface ELISA on fixed HEK293T cells expressing mouse TMPRSS6
Method: HEK293T cells stably expressing mouse TMPRSS6 (generated by LakePharma Inc as described above, FIGS. 4J, 4L, 4N, 4P, 4R, 4T) or cynomolgus monkey (generated in house as described above, FIGS. 4K, 4M, 4O, 4Q, 4S, 4U) were fixed with methanol (100%), and washed with dPBS (Dulbecco’s phosphate-buffered saline, Corning Cellgro) before incubation with various concentrations of anti-TMPRSS6 antibodies and their humanized variants diluted in BSA medium (DMEM + 1% Pen/Strep + 10 mM HEPES + 1 mg/ml BSA (Sigma-Aldrich)). Purified mouse IgG (FIGS. 4J-4O) or Human IgG1 (FIGS. 4P-4U) was used as a control. After incubation, cells were washed with BSA medium and then incubated with goat anti-mouse (Invitrogen, FIGS. 4J-4O) or anti-human (Millipore, FIGS. 4P-4U) IgG conjugated with HRP as a 2° antibody. Finally, cells were washed with dPBS to remove unbound antibody and color developed with ELISA liquid substrate (Sigma-Aldrich), followed by stopping the reaction with addition of the same volume of ELISA liquid substrate of 1 M H₂SO₄. Bound antibody was measured by absorbance at OD₄₅₀ₙₘ.

Does B1 bind?
Result: no binding

Does B2 bind?
Result: binds

Does B3 bind?
Result: binds

Does B5 bind?
Result: binds

Does B6 bind?
Result: binds
